Results on 167 variants are retold here after the RNAGym collection of RNA variant scans (doi:10.7554/elife.80360).

The labels stand for the following.
B1: HDV Ribozyme (parent)
chain: GGCCGGCAUGGUCCCAGCCUCCUCGCUGGCGCCGGCUGGGCAACAUUCCGAGGGGACCGUCCCCUCGGUAAUGGCGAAUGGGACCCA

The variants in this data set derive from B1. The experiment in a line: self-cleavage, relative activity (ratio to wild type); higher = more cleavage; co-transcriptional.
As for A51G A87C, the self-cleavage is 0.751.

With A51G A87G, the self-cleavage was found to be 1. Consider G52C C61G, for which the self-cleavage amounted to 0.886. As for G54A A70U, the self-cleavage came out at 0.843. Turning to G54A C57G, the self-cleavage was 0.903.

Consider A51G A56C, for which the self-cleavage was 0.733. Take A51G A56U: the self-cleavage was 1. In the case of G50U G76U, the self-cleavage amounted to 1.04. Next, G54C A87C: 1.02. As to G52A C62G, the self-cleavage is 0.397. With G53C C85G, the self-cleavage was 1.01. Take G53C C85A: the self-cleavage worked out at 0.955.

Consider G50U G82U, for which the self-cleavage is 0.633.

Consider G53U A83U, for which the self-cleavage came out at 0.609. G52C G73C: the self-cleavage was 0.339.

As for G52C C58A, the self-cleavage was found to be 0.796. In the case of G50C G55A, the self-cleavage amounted to 0.959.

Take G50C G55U: the self-cleavage was 0.776. As for G53U G81A, the self-cleavage was 0.445. As for G54C G82A, the self-cleavage was 0.226. Then G54C G82U, with 0.448; and G52U A77U, with 0.743. Then G52A G81U, with 0.244. On to G53A A56U, for which the self-cleavage came to 0.873.

As for G53A G54U, the self-cleavage came to 0.962.

Turning to G52A C84U, the self-cleavage turned out to be 0.691. In the case of G52A C84G, the self-cleavage came out at 0.764.

For A51C C62G, the self-cleavage was determined as 0.151.

Take G53A G82U: the self-cleavage worked out at 0.359. Then G53A G82C, with 0.246; and G52U C63A, with 0.806; and G53A G76U, with 1.11. For the variant G53A G76A, the self-cleavage is 1.16. Then G50U C58U, with 0.909.

Take A51C G59C: the self-cleavage amounted to 0.807. Regarding A51C G59U, the self-cleavage worked out at 0.762. Next, A51C U60C: 1.15. For G52C G74U, the self-cleavage stood at 0.312.

Take G52C C75A: the self-cleavage is 0.153. Consider G52C C64U, for which the self-cleavage stood at 0.964. Turning to G54C G68C, the self-cleavage was 0.346. As to G53C G59A, the self-cleavage is 0.95. With G53C G59C, the self-cleavage came to 0.958.

Turning to G54C C84U, the self-cleavage was found to be 0.665. Then G53A C57G, with 0.992; and G52C A70G, with 0.702.

For A51G G81C, the self-cleavage worked out at 0.266. With G54A C63A, the self-cleavage is 0.831. G50C G53U: the self-cleavage stood at 0.338. Then G50C G53A, with 0.665; and G52A G76A, with 1.05; and G52A G76C, with 1.24.

Turning to G53A A77U, the self-cleavage worked out at 0.483. Then G53C U65C, with 0.772; and G53C U65A, with 0.629.

As for A51C G54C, the self-cleavage is 0.787. Regarding G54A U72C, the self-cleavage was determined as 0.61. For G54A U72G, the self-cleavage was 0.453. For the variant A51G C75U, the self-cleavage was found to be 0.217. Next, G52C C63A: 1.05; G52C C63U: 0.919.

A51G A70G: the self-cleavage worked out at 1.16. For the variant G50U A83U, the self-cleavage stood at 0.683. For G52U G82U, the self-cleavage is 0.382.

Regarding G53A C84U, the self-cleavage stood at 0.777. Turning to A51C G80C, the self-cleavage is 0.0437. For A51C G67C, the self-cleavage came out at 0.886. Consider A51U U69A, for which the self-cleavage was 0.95. Next, G54A G80A: 0.443; A51G C62U: 1.01; A51G G52A: 1. As to G54C C57U, the self-cleavage turned out to be 0.997. Take G52C G53A: the self-cleavage came out at 0.733. In the case of G50C G82C, the self-cleavage amounted to 0.383. Consider G50C G82U, for which the self-cleavage is 0.217. Turning to G50C G82A, the self-cleavage worked out at 0.364. On to G50U G80C, for which the self-cleavage stood at 0.111. Then A51U G54A, with 0.973; and G50U C64G, with 0.703; and G54A A87C, with 1.06.

On to A51C A87C, for which the self-cleavage turned out to be 0.937. For G52C A78U, the self-cleavage is 0.315. Regarding G52C A78G, the self-cleavage came out at 0.787. In the case of G52A G82U, the self-cleavage was 0.367.

For the variant G54A G68C, the self-cleavage came to 0.173. Consider G53U C85G, for which the self-cleavage amounted to 0.818.

Take G50U G52C: the self-cleavage is 0.803. Next, G52U G81U: 0.429; G52C U65G: 1.04; A51U C66U: 1.07. For G53C C64G, the self-cleavage was determined as 0.268. Consider G53A U60C, for which the self-cleavage was 0.935. On to A51C C64U, for which the self-cleavage was 0.9. Then A51C C64G, with 1.09. Next, G52U C84U: 0.71.

Regarding G54A C85U, the self-cleavage came to 0.808. Next, G54A C85A: 0.917; G52U G73A: 0.546. With G54C U60G, the self-cleavage came out at 0.895. Then A51G G55C, with 0.481; and A51U U65G, with 1.3. Next, G53C G81C: 0.0665; A51U A71G: 0.91. Take G52U G80A: the self-cleavage worked out at 0.528. Turning to G52U G80C, the self-cleavage was found to be 0.241.

With G53A G80C, the self-cleavage came out at 0.351. Consider G50C G76U, for which the self-cleavage is 1.04. Then G54C A56G, with 0.808. As to G50U G53C, the self-cleavage was 0.437.

Consider G50U G53A, for which the self-cleavage is 0.971. On to G53U G80U, for which the self-cleavage turned out to be 0.256. Take G53U G80A: the self-cleavage was found to be 0.419. Next, G53U G80C: 0.304; G53C A56U: 1.11; G53C A56C: 1.14. In the case of G53A C86U, the self-cleavage was 0.881. On to A51G C84A, for which the self-cleavage amounted to 0.698. Regarding G52U A70U, the self-cleavage is 0.831. With G52U A70C, the self-cleavage was 0.577. Next, G52C G76A: 0.976; G52A C58U: 0.888.

Consider G52A C58G, for which the self-cleavage was determined as 0.974. As for G53C G68C, the self-cleavage was determined as 0.372. Take A51U A56G: the self-cleavage amounted to 1.11.

Regarding A51C G76U, the self-cleavage is 1.11.

Regarding G54A U60G, the self-cleavage was 1.03. Consider G54A G67U, for which the self-cleavage came to 0.657.

G53A C66A: the self-cleavage worked out at 0.794. Consider G54C G73C, for which the self-cleavage came out at 0.502. G50U G74C: the self-cleavage worked out at 0.214. With G50U G74A, the self-cleavage was found to be 0.453. With G52A G53A, the self-cleavage came to 0.89. On to G53A A71G, for which the self-cleavage was determined as 0.941.

Regarding A51C U79C, the self-cleavage came out at 0.447. As for G54C A78G, the self-cleavage came to 0.507. For the variant G54C A78U, the self-cleavage came to 0.324. Consider G54C A78C, for which the self-cleavage came out at 0.191. For G50C A56G, the self-cleavage stood at 0.734. Turning to G50C A56U, the self-cleavage was determined as 0.935.

Regarding A51U U60A, the self-cleavage was 1.14. With G53U A56U, the self-cleavage amounted to 0.956. Then G53U A56G, with 1.03; and A51G A83C, with 0.199. For A51U C63U, the self-cleavage worked out at 0.88. As to G54C A83U, the self-cleavage amounted to 0.631. Consider G53C G76C, for which the self-cleavage was 0.991. Then G53C G76A, with 0.882; and G53U U60A, with 0.997. Consider G52A C64G, for which the self-cleavage turned out to be 0.935. On to G52A C86A, for which the self-cleavage stood at 0.9.

Consider G50U C86A, for which the self-cleavage is 0.727. For the variant G53A U79G, the self-cleavage was determined as 0.554. Next, A51C G68A: 0.916; A51C G68C: 0.762. In the case of A51G U65C, the self-cleavage worked out at 1.26.

For G50C C61A, the self-cleavage was 0.865. Then G53C G55C, with 1.05.

With G52A U65A, the self-cleavage came to 0.954. For the variant A51C A56G, the self-cleavage amounted to 0.831. Then A51U C85G, with 0.831; and A51U C85U, with 0.916. For the variant A51G C63A, the self-cleavage came to 0.734. Regarding G50U A51C, the self-cleavage was determined as 0.889.

In the case of G52A C57A, the self-cleavage is 0.963. Next, G53A C58G: 0.935; G53C A87C: 1.01. Next, G53A C63U: 0.812.
